Source: patent US20110098217A1 (INDIANA UNIVERSITY RESEARCH AND TECHNOLOGY, published 2011)
Like-named read-outs stand apart in the source and are kept apart here. Bridge positions count the residues as written; N and C are the ends. Square brackets hold non-standard residues; d marks the D form. Ends that are not written are not given here. Abu(4-SO3H) = N[C@@H](CCS(=O)(=O)O)C(=O)O; PhLac = O=C(O)[C@@H](O)Cc1ccccc1

Experiments:
Receptor (human) = Receptor (human) (UniProt P47871); test: receptor binding competition
human glucagon receptor [1] = biological target: T1, human glucagon receptor (human, UniProt P47871 26-477); test: cell-based or functional assay
human GLP-1 receptor [2] = biological target: T2, human GLP-1 receptor (human, UniProt P43220 24-463); test: cell-based or functional assay
human glucagon receptor [3] = biological target: T1, human glucagon receptor; test: cell-based or functional assay; remark: listed apart in the source
human GLP-1 receptor [4] = biological target: T2, human GLP-1 receptor; test: cell-based or functional assay; remark: listed apart in the source
human glucagon receptor [5] = biological target: T1, human glucagon receptor; test: SPA competition vs 125I-glucagon, receptor membranes
human glucagon receptor [6] = biological target: T1, human glucagon receptor; test: cell-based or functional assay; remark: listed apart in the source
human glucagon receptor [7] = biological target: T1, human glucagon receptor; test: SPA competition vs 125I-glucagon, receptor membranes; remark: listed apart in the source
human glucagon receptor [8] = biological target: T1, human glucagon receptor; test: cell-based or functional assay; remark: listed apart in the source
human GLP-1 receptor [9] = biological target: T2, human GLP-1 receptor; test: cell-based or functional assay; remark: listed apart in the source
human glucagon receptor [10] = biological target: T1, human glucagon receptor; test: cell-based or functional assay; remark: listed apart in the source
human GLP-1 receptor [11] = biological target: T2, human GLP-1 receptor; test: cell-based or functional assay; remark: listed apart in the source
human glucagon receptor [12] = biological target: T1, human glucagon receptor; test: cell-based or functional assay; remark: listed apart in the source
human glucagon receptor [13] = biological target: T1, human glucagon receptor; test: SPA competition vs 125I-glucagon, receptor membranes; remark: listed apart in the source

Receptor (human), sequence (P47871 26-477): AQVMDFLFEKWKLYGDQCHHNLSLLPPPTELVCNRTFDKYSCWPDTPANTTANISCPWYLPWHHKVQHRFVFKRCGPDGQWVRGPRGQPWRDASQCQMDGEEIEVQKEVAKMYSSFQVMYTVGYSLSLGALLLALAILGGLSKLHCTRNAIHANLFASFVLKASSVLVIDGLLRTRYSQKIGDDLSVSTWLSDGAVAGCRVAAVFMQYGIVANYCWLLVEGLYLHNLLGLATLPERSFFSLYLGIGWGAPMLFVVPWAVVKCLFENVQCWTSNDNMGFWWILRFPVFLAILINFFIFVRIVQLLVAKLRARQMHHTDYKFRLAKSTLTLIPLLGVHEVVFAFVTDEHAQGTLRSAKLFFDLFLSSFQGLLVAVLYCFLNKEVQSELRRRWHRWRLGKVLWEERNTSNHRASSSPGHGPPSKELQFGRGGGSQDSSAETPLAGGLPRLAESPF
T1 sequence (P47871 26-477): as above

[BMA6, E9]G(6-29)-NH2
IC50 (Receptor (human)): 80.6 nM

[Ac-F6, E9]G(6-29)-NH2
IC50 (Receptor (human)): 37.1 nM

[3,4-2(F)-F6, E9]G(6-29)-NH2
IC50 (Receptor (human)): 36.7 nM

[MCA6, E9]G(6-29)-NH2
IC50 (Receptor (human)): 114 nM

[2-Nal6, E9]G(6-29)-NH2
IC50 (Receptor (human)): 95.2 nM

B1: [S2Q3-O-PLA6, D9, E16K20(Lactam), D28] G(2-29) (peptide)
peptide: SQGT[PhLac]TSDYSKYLDERRAKDFVQWLMDT-NH2
modifications: lactam 15-19; also: ester (depsipeptide) bond Thr5-PLA6
Glucagon antagonism IC50 (inhibit 0.8 nM glucagon) (human glucagon receptor [1]): 3.14 nM
GLP-1 agonism EC50 (human GLP-1 receptor [2]): 45.7 nM
Glucagon antagonism IC50 (inhibit 0.8 nM glucagon) (human glucagon receptor [3]): 20.9 nM
GLP-1 agonism EC50 (human GLP-1 receptor [4]): 112 nM

B2: [A2E3-O-PLA6, D9, E16K20(Lactam), D28] G(2-29) (peptide)
peptide: AEGT[PhLac]TSDYSKYLDERRAKDFVQWLMDT-NH2
modifications: lactam 15-19; also: PLA6 linked to Thr5 by an ester bond (depsipeptide)
Glucagon antagonism IC50 (inhibit 0.8 nM glucagon) (human glucagon receptor [1]): 4.68 nM
GLP-1 agonism EC50 (human GLP-1 receptor [2]): 14 nM
Glucagon antagonism IC50 (inhibit 0.8 nM glucagon) (human glucagon receptor [3]): 21.8 nM
GLP-1 agonism EC50 (human GLP-1 receptor [4]): 18 nM

B3: [hGlu^9] Glucagon(aa2-29)-NH2 (peptide)
peptide: SQGTFTSXYSKYLDSRRAQDFVQWLMNT
modifications: homoglutamic acid (hGlu) at position 9; C-terminal amide
notes: also called peptide no
IC50 (human glucagon receptor [5]): 8.1 nM

B4: [desHis^1, hCys^9(SO3-), Phe^25, Leu^27] Glucagon-NH2 (peptide)
peptide: SQGTFTS[Abu(4-SO3H)]YSKYLDSRRAQDFVQFLLNT-NH2
modifications: N-terminus assumed
SMILES: CC(C)C[C@H](NC(=O)[C@H](Cc1ccc(O)cc1)NC(=O)[C@H](CCCCN)NC(=O)[C@H](CO)NC(=O)[C@H](Cc1ccc(O)cc1)NC(=O)[C@H](CCS(=O)(=O)O)NC(=O)[C@H](CO)NC(=O)[C@@H](NC(=O)[C@H](Cc1ccccc1)NC(=O)[C@@H](NC(=O)CNC(=O)[C@H](CCC(N)=O)NC(=O)[C@@H](N)CO)[C@@H](C)O)[C@@H](C)O)C(=O)N[C@@H](CC(=O)O)C(=O)N[C@@H](CO)C(=O)N[C@@H](CCCNC(=N)N)C(=O)N[C@@H](CCCNC(=N)N)C(=O)N[C@@H](C)C(=O)N[C@@H](CCC(N)=O)C(=O)N[C@@H](CC(=O)O)C(=O)N[C@@H](Cc1ccccc1)C(=O)N[C@H](C(=O)N[C@@H](CCC(N)=O)C(=O)N[C@@H](Cc1ccccc1)C(=O)N[C@@H](CC(C)C)C(=O)N[C@@H](CC(C)C)C(=O)N[C@@H](CC(N)=O)C(=O)N[C@H](C(N)=O)[C@@H](C)O)C(C)C
notes: also called Cmpd; 4B
cAMP Induction EC50 (human glucagon receptor [6]): 430 nM
IC50 (human glucagon receptor [7]): 13.9 nM

B5: [desHis^1, Glu^9, Phe^25, Leu^27]Glucagon-NH2 (peptide)
peptide: SQGTFTSEYSKYLDSRRAQDFVQFLLNT-NH2
cAMP Induction EC50 (human glucagon receptor [6]): 81 nM
IC50 (human glucagon receptor [7]): 12.6 nM

B6: [desHis^1, Leu^4, Glu^9] Glucagon-NH2 (peptide)
peptide: SQLTFTSEYSKYLDSRRAQDFVQWLMNT-NH2
notes: also called Cmpd
cAMP Induction EC50 (human glucagon receptor [6]): 318 nM
cAMP Inhibition IC50 (human glucagon receptor [6]): 102 nM
IC50 (human glucagon receptor [7]): 36.9 nM

B7: [PLA6, E16, E24K28(lactam)]G(6-29) (peptide)
peptide: [PhLac]TSDYSKYLDERRAQDFVEWLMKT-NH2
modifications: lactam 19-23; not fully specified
Glucagon IC50 (human glucagon receptor [8]): 22 nM
GLP-1 EC50 (human GLP-1 receptor [9]): 289 nM
Glucagon antagonism IC50 (inhibit 0.2-0.8 nM glucagon) (human glucagon receptor [10]): 22.4 nM
GLP-1 agonism EC50 (human GLP-1 receptor [11]): 289 nM

B8: [PLA6, E16, K20E24(lactam), D28]G(6-29) (peptide)
peptide: [PhLac]TSDYSKYLDERRAKDFVEWLMDT-NH2
modifications: lactam 15-19; N-terminus assumed
SMILES: CSCC[C@H](NC(=O)[C@H](CC(C)C)NC(=O)[C@H](Cc1c[nH]c2ccccc12)NC(=O)[C@@H]1CCC(=O)NCCCC[C@H](NC(=O)[C@H](C)NC(=O)[C@H](CCCNC(=N)N)NC(=O)[C@H](CCCNC(=N)N)NC(=O)[C@H](CCC(=O)O)NC(=O)[C@H](CC(=O)O)NC(=O)[C@H](CC(C)C)NC(=O)[C@H](Cc2ccc(O)cc2)NC(=O)[C@H](CCCCN)NC(=O)[C@H](CO)NC(=O)[C@H](Cc2ccc(O)cc2)NC(=O)[C@H](CC(=O)O)NC(=O)[C@H](CO)NC(=O)[C@@H](NC(=O)[C@@H](O)Cc2ccccc2)[C@@H](C)O)C(=O)N[C@@H](CC(=O)O)C(=O)N[C@@H](Cc2ccccc2)C(=O)N[C@@H](C(C)C)C(=O)N1)C(=O)N[C@@H](CC(=O)O)C(=O)N[C@H](C(N)=O)[C@@H](C)O
Glucagon IC50 (human glucagon receptor [8]): 74 nM
GLP-1 EC50 (human GLP-1 receptor [9]): 239 nM
Glucagon antagonism IC50 (inhibit 0.2-0.8 nM glucagon) (human glucagon receptor [10]): 74.4 nM
GLP-1 agonism EC50 (human GLP-1 receptor [11]): 240 nM

B9: [PLA^6, E^9]Glucagon (aa6-29 + CEX)-NH2 (peptide)
peptide: [PhLac]TSEYSKYLDSRRAQDFVQWLMNTGPSSGAPPPS-NH2
modifications: N-terminus assumed
SMILES: CSCC[C@H](NC(=O)[C@H](CC(C)C)NC(=O)[C@H](Cc1c[nH]c2ccccc12)NC(=O)[C@H](CCC(N)=O)NC(=O)[C@@H](NC(=O)[C@H](Cc1ccccc1)NC(=O)[C@H](CC(=O)O)NC(=O)[C@H](CCC(N)=O)NC(=O)[C@H](C)NC(=O)[C@H](CCCNC(=N)N)NC(=O)[C@H](CCCNC(=N)N)NC(=O)[C@H](CO)NC(=O)[C@H](CC(=O)O)NC(=O)[C@H](CC(C)C)NC(=O)[C@H](Cc1ccc(O)cc1)NC(=O)[C@H](CCCCN)NC(=O)[C@H](CO)NC(=O)[C@H](Cc1ccc(O)cc1)NC(=O)[C@H](CCC(=O)O)NC(=O)[C@H](CO)NC(=O)[C@@H](NC(=O)[C@@H](O)Cc1ccccc1)[C@@H](C)O)C(C)C)C(=O)N[C@@H](CC(N)=O)C(=O)N[C@H](C(=O)NCC(=O)N1CCC[C@H]1C(=O)N[C@@H](CO)C(=O)N[C@@H](CO)C(=O)NCC(=O)N[C@@H](C)C(=O)N1CCC[C@H]1C(=O)N1CCC[C@H]1C(=O)N1CCC[C@H]1C(=O)N[C@@H](CO)C(N)=O)[C@@H](C)O
IC50 (cAMP, inhibit 0.1 nM Glucagon) (human glucagon receptor [12]): 24.8 nM
IC50 (human glucagon receptor [13]): 40.3 nM

B10: [desHis^1, desPhe^6] Glucagon-NH2 (peptide)
peptide: SQGTTSDYSKYLDSRRAQDFVQWLMNT-NH2
notes: His1 and Phe6 deleted; also called Cmpd
cAMP Induction EC50 (human glucagon receptor [6]): 1180 nM
IC50 (human glucagon receptor [7]): 130 nM

B11: [H1A2E3-O-PLA6, D9, E16K20(Lactam), D28] G(1-29) (peptide)
peptide: HAEGT[PhLac]TSDYSKYLDERRAKDFVQWLMDT-NH2
modifications: lactam 16-20; also: PLA6 linked to Thr5 by an ester bond (depsipeptide)
Glucagon antagonism IC50 (inhibit 0.8 nM glucagon) (human glucagon receptor [1]): 9.65 nM
GLP-1 agonism EC50 (human GLP-1 receptor [2]): 6.2 nM

B12: [desHis^1, desPhe^6, hCys^9(SO3-), Phe^25, Leu^27] Glucagon-NH2 (peptide)
peptide: SQGTTS[Abu(4-SO3H)]YSKYLDSRRAQDFVQFLLNT-NH2
modifications: N-terminus assumed
SMILES: CC(C)C[C@H](NC(=O)[C@H](Cc1ccc(O)cc1)NC(=O)[C@H](CCCCN)NC(=O)[C@H](CO)NC(=O)[C@H](Cc1ccc(O)cc1)NC(=O)[C@H](CCS(=O)(=O)O)NC(=O)[C@H](CO)NC(=O)[C@@H](NC(=O)[C@@H](NC(=O)CNC(=O)[C@H](CCC(N)=O)NC(=O)[C@@H](N)CO)[C@@H](C)O)[C@@H](C)O)C(=O)N[C@@H](CC(=O)O)C(=O)N[C@@H](CO)C(=O)N[C@@H](CCCNC(=N)N)C(=O)N[C@@H](CCCNC(=N)N)C(=O)N[C@@H](C)C(=O)N[C@@H](CCC(N)=O)C(=O)N[C@@H](CC(=O)O)C(=O)N[C@@H](Cc1ccccc1)C(=O)N[C@H](C(=O)N[C@@H](CCC(N)=O)C(=O)N[C@@H](Cc1ccccc1)C(=O)N[C@@H](CC(C)C)C(=O)N[C@@H](CC(C)C)C(=O)N[C@@H](CC(N)=O)C(=O)N[C@H](C(N)=O)[C@@H](C)O)C(C)C
notes: His1 and Phe6 deleted; also called Cmpd; 5B
cAMP Induction EC50 (human glucagon receptor [6]): 3210 nM
cAMP Inhibition IC50 (human glucagon receptor [6]): 9220 nM
IC50 (human glucagon receptor [7]): 53.3 nM

B13: [PLA6, E16K20(lactam), E21, D28] G(6-29) (peptide)
peptide: [PhLac]TSDYSKYLDERRAKEFVQWLMDT-NH2
modifications: lactam 11-15; N-terminus assumed
SMILES: CSCC[C@H](NC(=O)[C@H](CC(C)C)NC(=O)[C@H](Cc1c[nH]c2ccccc12)NC(=O)[C@H](CCC(N)=O)NC(=O)[C@@H](NC(=O)[C@H](Cc1ccccc1)NC(=O)[C@H](CCC(=O)O)NC(=O)[C@@H]1CCCCNC(=O)CC[C@H](NC(=O)[C@H](CC(=O)O)NC(=O)[C@H](CC(C)C)NC(=O)[C@H](Cc2ccc(O)cc2)NC(=O)[C@H](CCCCN)NC(=O)[C@H](CO)NC(=O)[C@H](Cc2ccc(O)cc2)NC(=O)[C@H](CC(=O)O)NC(=O)[C@H](CO)NC(=O)[C@@H](NC(=O)[C@@H](O)Cc2ccccc2)[C@@H](C)O)C(=O)N[C@@H](CCCNC(=N)N)C(=O)N[C@@H](CCCNC(=N)N)C(=O)N[C@@H](C)C(=O)N1)C(C)C)C(=O)N[C@@H](CC(=O)O)C(=O)N[C@H](C(N)=O)[C@@H](C)O
Glucagon antagonism IC50 (inhibit 0.2-0.8 nM glucagon) (human glucagon receptor [10]): 8.6 nM
GLP-1 agonism EC50 (human GLP-1 receptor [11]): 11.1 nM
